Consider 18 molecules from patent publication US20230088461A1 (NANJING LEGEND BIOTECH, published 2023).

B1: LAb19310 (antibody, V domains shown)
VH: EVQLQQSGPELVKPGPSLKISCKASGYSFTVSPMTWVKQSHGKNLEWIGLIHPYNGDTTYNQKFKGKATLTVDKSSSTAYMELLSLTSEDSAVYYCARWGNYYPYAMDYWGQGTSVTVSS
VL: DIVMTQSQKFMSTSVGDRVSITCKASQNVRSTVAWYQQKPGQSPKALIYLTSNRHTGVPDRFTGSGSGTDFTLTISNVQSEDLADYFCLQHWNYPYTFGGGTKLEIK
notes: Mouse monoclonal antibody purified from hybridoma supernatant
B2: LAb19304 (antibody, V domains shown)
VH: QVQLQQSGAELVRPGASVTLSCKASGYTFTAYEMHWVKQTPVHGLEWIGGIDPETGNTAYSQKFKGKATLTADKSSSTAYMEVRSLTSEDSAVYYCSRYYSFAYWGQGTLVTVSA
VL: DVLMTQTPLSLPVSLGDQASISCRSSQTIVHSNGNTYLEWYLQKPGQSPKLLIYKVSNRFSGVPDRFSGSGSGTDFTLKISRVEAEDLGVYYCFQVSHVPYTFGGGTKLEIK
notes: as for B1
B3: LAb19309 (antibody, V domains shown)
VH: B2 VH with A31D, S97T
VL: B2 VL with S14N, K79R
notes: as for B1
B4: LAb19305 (antibody, V domains shown)
VH: B2 VH with H43Y, K63N
VL: B2 VL
notes: as for B1
B5: LAb19301 (antibody, V domains shown)
VH: DVQLQESGPDLVKPSQSLSLTCTVTGYSITSGFSWHWIRQFPGHKLEWMGFMQYSGNTNYNPSLKSRISFTRDTSKNQFFLQLKSVTPEDTATYYCARREEGAWFAYWGQGTLVTVSA
VL: DVVMTQTPLSLPVSLGDQASISCGSSQSLVHSNGNTYLHWYLQKPGQSPKLLIYKVSNRFSGVPDRFSGSGSGTDFTLKISRVEAEDLGVYFCSQSTHFPFTFGSGTKLEIK
notes: as for B1
B6: LAb19307 (antibody, V domains shown)
VH: EVQLVESGGDLVKPGGSLKLSCAASGFAFGTYDMSWVRQTPEKRLEWVAYISSGGNSPYYPQTVKGRFTISRDNAKNTLYLQMSSLKSEDTAMYYCARQNIARRGAMDFWGQGASVTVSS
VL: B5 VL with M4L, T7S, L11Q, G24T, V30L, F99V, F101P, S105G
notes: as for B1
B7: LAb19306 (antibody, V domains shown)
VH: EVQLVESGGGLVKPGGSLKLSCAASGFAFSTYDMSWVRQTPERRLEWVAYISSGGATTYYPDSVKGRFTISRDNAKNTLYLQMSSLKSEDTAMYYCARLSLMIRGWFAYWGQGTLVTVSA
VL: B5 VL with G24R, F99V, F101Y, S105G
notes: as for B1
B8: LAb19308 (antibody, V domains shown)
VH: B7 VH with S30I, D33G, R43K, T57N, R98S, L101T, M102L, I103V
VL: B5 VL with G24R, F99V, F101Y, S105G
notes: as for B1
B9: LAb19302 (antibody, V domains shown)
VH: B7 VH with E1A, K13R, D33G, R43T, R98S, L101I
VL: B5 VL with G24R, L51V, F99V, F101Y, S105G
notes: as for B1
B10: LAb19303 (antibody, V domains shown)
VH: B2 VH with K23E, T30N, A31D, G50A, N57A, S61N, V83L, S91T, S97T
VL: B2 VL with T28S, I29F, E39Q, V96G
notes: as for B1
B11: Chimeric LAb19309-hIgG1 (antibody, V domains shown)
VH: B2 VH with A31D, S97T
VL: DVLMTQTPLSLPVNLGDQASISCRSSQTIVHSNGNTYLEWYLQKPGQSPKLLIYKVSNRFSGVPDRFSGSGSGTDFTLRISRVEAEDLGVYYCFQVSHVPYTFGGGTKLEIKR
notes: The mouse VH/VL numbers follow the parallel order of the lists, as for LAb19309
B12: 9VH1VL3-hIgG1 (antibody, V domains shown)
VH: QVQLVQSGAEVKKPGASVKVSCKASGYTFTDYEMHWVRQAPGQRLEWMGGIDPETGNTAYSQKFKGRVTITRDTSASTAYMELSSLRSEDTAVYYCARYYSFAYWGQGTLVTVSS
VL: DIVMTQSPDSLAVSLGERATINCRSSQTIVHSNGNTYLEWYQQKPGQPPKLLIYKVSNRFSGVPDRFSGSGSGTDFTLTISSLQAEDVAVYYCFQVSHVPYTFGGGTKLEIKR
notes: Humanized LAb19309, full-length human IgG1/kappa; also called 9VH1VL3-hIgG1 mAb
B13: 9VH3VL2-hIgG1 (antibody, V domains shown)
VH: B12 VH with P41T, R44G, I70M, D73N, A76I
VL: B11 VL with V2I, L3V, T7S, N14T, L15P, D17E, Q18P, K50Q, R79K, L88V
notes: Humanized LAb19309, full-length human IgG1/kappa; also called 9VH3VL2-hIgG1 mAb
B14: 9VH3VL3-hIgG1 (antibody, V domains shown)
VH: B12 VH with P41T, R44G, I70M, D73N, A76I
VL: B12 VL
notes: Humanized LAb19309, full-length human IgG1/kappa
B15: Chimeric LAb19305-hIgG1 (antibody, V domains shown)
VH: B2 VH with H43Y, K63N
VL: B11 VL with N14S, R79K
notes: The mouse VH/VL numbers follow the parallel order of the lists, as for LAb19305
B16: 5VH2VL2-hIgG1 (antibody, V domains shown)
VH: B12 VH with D31A, R44G, K63N, I70M, A76T, A79V
VL: B11 VL with V2I, L3V, T7S, N14T, L15P, D17E, Q18P, K50Q, R79K, L88V
notes: Humanized LAb19305, full-length human IgG1/kappa
B17: 5VH2VL3-hIgG1 (antibody, V domains shown)
VH: B12 VH with D31A, R44G, K63N, I70M, A76T, A79V
VL: B12 VL
notes: as for B16
B18: 5VH1VL2-hIgG1 (antibody, V domains shown)
VH: B12 VH with D31A, K63N
VL: B11 VL with V2I, L3V, T7S, N14T, L15P, D17E, Q18P, K50Q, R79K, L88V
notes: as for B16

Substitutions are numbered along the chain they refer to.

The target in one experiment is T1, cynomolgus monkey GPC3 on SK-HEP-1-cmGPC3 cells (cynomolgus monkey, UniProt A0A2K5VK50 24-553).
T1 construct: whole, on cells
The experiment is described as follows: flow cytometry on SK-HEP-1-cmGPC3 cells, PE anti-mouse IgG Fc. Also: test concentration or dose not given here.
With B1, the “Positive population, %” value amounted to 22.3%.
As to B2, the “Positive population, %” value was 94.6%.
Consider B3, for which the “Positive population, %” value turned out to be 91.9%.
B4: the “Positive population, %” value is 94.2%.
Consider B5, for which the “Positive population, %” value worked out at 18.5%.
Turning to B6, the “Positive population, %” value is 11.6%.
Consider B7, for which the “Positive population, %” value turned out to be 3.32%.
With B8, the “Positive population, %” value stood at 9.55%.
On to B9, for which the “Positive population, %” value came to 12.3%.

In another experiment the target is T2, human GPC3 on SK-HEP-1-huGPC3 cells (human, UniProt P51654 25-554).
T2 construct: whole, on cells
The experiment is described as follows: flow cytometry on SK-HEP-1-huGPC3 cells, PE anti-mouse IgG Fc. Also: test concentration or dose not given here.
For the molecule B1, the “Positive population, %” value came out at 91.3%.
Regarding B2, the “Positive population, %” value was found to be 91.9%.
Regarding B3, the “Positive population, %” value came to 92.7%.
With B4, the “Positive population, %” value is 92.6%.
Still for that read-out and setting: the value for B5 was 72.6%; that for B6 was 92.9%.
Regarding B7, the “Positive population, %” value was determined as 86.2%.
In the case of B8, the “Positive population, %” value worked out at 91.4%.
The same measure, in the same setting: the value for B9 was 91.5%.

For another experiment, the target named is T3, mouse GPC3 on SK-HEP-1-muGPC3 cells (mouse, UniProt Q8CFZ4 25-553).
T3 construct: whole, on cells
T3 sequence (Q8CFZ4 25-553 limits assumed): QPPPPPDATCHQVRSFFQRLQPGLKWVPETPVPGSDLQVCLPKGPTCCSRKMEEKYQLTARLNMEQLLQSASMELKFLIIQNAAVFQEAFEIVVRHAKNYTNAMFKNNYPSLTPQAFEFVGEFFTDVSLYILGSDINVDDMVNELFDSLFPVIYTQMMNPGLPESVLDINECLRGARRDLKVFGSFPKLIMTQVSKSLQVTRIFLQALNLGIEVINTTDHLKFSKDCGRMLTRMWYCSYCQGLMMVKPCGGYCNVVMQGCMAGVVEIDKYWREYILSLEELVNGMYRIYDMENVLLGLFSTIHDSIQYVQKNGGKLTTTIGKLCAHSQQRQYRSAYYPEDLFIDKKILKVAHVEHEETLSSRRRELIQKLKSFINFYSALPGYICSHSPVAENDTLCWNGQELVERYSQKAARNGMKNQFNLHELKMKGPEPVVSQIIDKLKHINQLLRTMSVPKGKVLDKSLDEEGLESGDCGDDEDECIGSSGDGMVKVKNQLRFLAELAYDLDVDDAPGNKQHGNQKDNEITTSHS
The experiment is described as follows: flow cytometry on SK-HEP-1-muGPC3 cells, PE anti-mouse IgG Fc. Also: test concentration or dose not given here.
On to B1, for which the “Positive population, %” value was found to be 83.9%.
B10: the “Positive population, %” value came to 0.72%.
On to B2, for which the “Positive population, %” value was 25.6%.
Take B3: the “Positive population, %” value is 1.02%.
For the molecule B4, the “Positive population, %” value came to 17%.
B5: the “Positive population, %” value worked out at 17.5%.
B6: the “Positive population, %” value was 83.3%.
Take B7: the “Positive population, %” value turned out to be 75.8%.
As for B8, the “Positive population, %” value was 82.4%.
On to B9, for which the “Positive population, %” value worked out at 81.8%.

The target of the next experiment is T4, GPC3 (analyte of Tables 9 and 10) (UniProt P51654 25-559, limits assumed). The experiment is described as follows: SPR (Biacore T200), purified antibody captured through Fc, GPC3 as analyte, 1:1 model.
Experimental: (§1) Antibodies were immobilized on the sensor chip through Fc capture method. GPC3 was used as the analyte. The surface was regenerated before the injection of another antibody. The process was repeated until all antibodies are analyzed. The off-rates of antibodies were obtained from fitting the experimental data locally to 1:1 interaction model using the Biacore T200 evaluation software. The data of dissociation (kd) and association (ka) rate constants (KD) were calculated from the ration of kd over ka.
Molecule B11 came in with a Kd of 3.56 nM, an off-rate (koff) of 0.000239 s⁻¹ and an on-rate (kon) of 67100 M⁻¹ s⁻¹.
The corresponding values for B12 are 1.53 nM, 0.00014 s⁻¹ and 91300 M⁻¹ s⁻¹.
In the case of B13, the Kd was 0.672 nM, the koff amounted to 9.01e-05 s⁻¹ and the association rate constant (kon) came out at 134000 M⁻¹ s⁻¹.
Turning to B14, the Kd is 1.13 nM, the koff was 0.000145 s⁻¹ and the kon turned out to be 129000 M⁻¹ s⁻¹.

The target in another experiment is T4, GPC3 (analyte of Tables 9 and 10). The experiment is described as above. This is another data set of the same source.
Experimental: as §1
For the molecule B15, binding was characterised by a dissociation constant (Kd) of 0.84 nM, the koff stood at 0.000103 s⁻¹ and the kon amounted to 123000 M⁻¹ s⁻¹.
The corresponding values for B16 are 0.572 nM, 8.91e-05 s⁻¹ and 156000 M⁻¹ s⁻¹.
On to B17, for which the dissociation constant (Kd) is 0.544 nM, the koff amounted to 8.76e-05 s⁻¹ and the on-rate (kon) came to 161000 M⁻¹ s⁻¹.
B18 registered a Kd of 1.1 nM, an off-rate constant (koff) of 0.000117 s⁻¹ and an on-rate constant (kon) of 107000 M⁻¹ s⁻¹.

For a further experiment, the target named is T5, recombinant human GPC3 (human, UniProt P51654 25-559, limits assumed).
T5 construct: also called hGPC3
The experiment is described as follows: SPR (Biacore), antibody as ligand, recombinant human GPC3 as analyte, 1:1 Langmuir model.
Experimental: The binding kinetics of the antibodies to recombinant human GPC3 were measured by the surface plasmon resonance (SPR) (e.g., Biacore). Binding rate (Kₐ) and dissociation rates (Kd) were calculated using a simple one-to-one Langmuir binding model (Biacore Evaluation Software). The equilibrium dissociation constant (KD) is calculated as the ratio Kd/Kₐ.
Consider B1, for which the Kd was determined as 12.6 nM, the off-rate constant (koff) turned out to be 0.000465 s⁻¹ and the kon turned out to be 36900 M⁻¹ s⁻¹.
The corresponding values for B2 are 5.11 nM, 0.000138 s⁻¹ and 27000 M⁻¹ s⁻¹.
With B3, the equilibrium dissociation constant (Kd) was 8.38 nM, the koff was 0.000195 s⁻¹ and the kon was 23300 M⁻¹ s⁻¹.
Take B4: the Kd was determined as 4.19 nM, the off-rate (koff) is 0.00013 s⁻¹ and the on-rate constant (kon) worked out at 31100 M⁻¹ s⁻¹.
B5: the Kd stood at 122 nM, the koff was found to be 0.00207 s⁻¹ and the kon amounted to 16900 M⁻¹ s⁻¹.
B6: the dissociation constant Kd amounted to 58.7 nM, the off-rate (koff) amounted to 0.00178 s⁻¹ and the association rate constant (kon) came out at 30200 M⁻¹ s⁻¹.
B7: the Kd is 28.4 nM, the koff came to 0.00077 s⁻¹ and the association rate constant (kon) amounted to 27100 M⁻¹ s⁻¹.
Turning to B8, the equilibrium dissociation constant (Kd) was found to be 41.4 nM, the koff worked out at 0.00102 s⁻¹ and the kon stood at 24700 M⁻¹ s⁻¹.
In the case of B9, the Kd is 71.2 nM, the koff is 0.00184 s⁻¹ and the on-rate (kon) was found to be 25800 M⁻¹ s⁻¹.
